Results: IntAct's records for PubMed 30190310

B1: Kelch-like protein 12 (Homo sapiens), Q53G59 (parent)
chain: MGGIMAPKDIMTNTHAKSILNSMNSLRKSNTLCDVTLRVEQKDFPAHRIVLAACSDYFCAMFTSELSEKGKPYVDIQGLTASTMEILLDFVYTETVHVTVENVQELLPAACLLQLKGVKQACCEFLESQLDPSNCLGIRDFAETHNCVDLMQAAEVFSQKHFPEVVQHEEFILLSQGEVEKLIKCDEIQVDSEEPVFEAVINWVKHAKKEREESLPNLLQYVRMPLLTPRYITDVIDAEPFIRCSLQCRDLVDEAKKFHLRPELRSQMQGPRTRARLGANEVLLVVGGFGSQQSPIDVVEKYDPKTQEWSFLPSITRKRRYVASVSLHDRIYVIGGYDGRSRLSSVECLDYTADEDGVWYSVAPMNVRRGLAGATTLGDMIYVSGGFDGSRRHTSMERYDPNIDQWSMLGDMQTAREGAGLVVASGVIYCLGGYDGLNILNSVEKYDPHTGHWTNVTPMATKRSGAGVALLNDHIYVVGGFDGTAHLSSVEAYNIRTDSWTTVTSMTTPRCYVGATVLRGRLYAIAGYDGNSLLSSIECYDPIIDSWEVVTSMGTQRCDAGVCVLREK
B2: Kelch repeat and BTB domain-containing protein 8 (Homo sapiens), Q8NFY9 (parent)
chain: MAASADLSKSSPTPNGIPSSDPASDAMDPFHACSILKQLKTMYDEGQLTDIVVEVDHGKTFSCHRNVLAAISPYFRSMFTSGLTESTQKEVRIVGVEAESMDLVLNYAYTSRVILTEANVQALFTAASIFQIPSIQDQCAKYMISHLDPQNSIGVFIFADHYGHQELGDRSKEYIRKKFLCVTKEQEFLQLTKDQLISILDSDDLNVDREEHVYESIIRWFEHEQNEREVHLPEIFAKCIRFPLMEDTFIEKIPPQFAQAIAKSCVEKGPSNTNGCTQRLGMTASEMIICFDAAHKHSGKKQTVPCLDIVTGRVFKLCKPPNDLREVGILVSPDNDIYIAGGYRPSSSEVSIDHKAENDFWMYDHSTNRWLSKPSLLRARIGCKLVYCCGKMYAIGGRVYEGDGRNSLKSVECYDSRENCWTTVCAMPVAMEFHNAVEYKEKIYVLQGEFFLFYEPQKDYWGFLTPMTVPRIQGLAAVYKDSIYYIAGTCGNHQRMFTVEAYDIELNKWTRKKDFPCDQSINPYLKLVLFQNKLHLFVRATQVTVEEHVFRTSRKNSLYQYDDIADQWMKVYETPDRLWDLGRHFECAVAKLYPQCLQKVL

Variants of: B1
Settings: with fxl17_human FBXL17, Q9UF56
Target sequence in this assay (Q9UF56 whole entry): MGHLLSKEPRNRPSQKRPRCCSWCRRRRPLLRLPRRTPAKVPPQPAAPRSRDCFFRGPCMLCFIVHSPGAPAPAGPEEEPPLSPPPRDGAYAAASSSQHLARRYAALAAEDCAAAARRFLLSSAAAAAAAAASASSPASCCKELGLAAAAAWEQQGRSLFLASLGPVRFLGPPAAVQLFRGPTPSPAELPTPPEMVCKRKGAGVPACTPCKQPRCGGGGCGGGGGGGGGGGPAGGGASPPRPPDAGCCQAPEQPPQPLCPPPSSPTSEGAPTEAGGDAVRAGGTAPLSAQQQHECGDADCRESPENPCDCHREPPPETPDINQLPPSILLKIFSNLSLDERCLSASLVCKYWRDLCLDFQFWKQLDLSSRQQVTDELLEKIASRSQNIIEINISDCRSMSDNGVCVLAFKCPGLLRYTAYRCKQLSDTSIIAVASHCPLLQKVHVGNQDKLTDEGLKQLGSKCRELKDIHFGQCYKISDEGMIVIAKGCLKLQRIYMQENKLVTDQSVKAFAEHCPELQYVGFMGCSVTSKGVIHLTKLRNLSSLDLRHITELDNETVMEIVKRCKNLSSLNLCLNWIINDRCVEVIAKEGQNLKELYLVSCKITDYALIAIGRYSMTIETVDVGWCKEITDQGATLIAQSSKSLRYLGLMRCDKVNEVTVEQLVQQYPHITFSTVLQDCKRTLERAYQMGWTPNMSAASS

Variant	effect of a mutation on the interaction
S67A	with no effect
S67E	disrupting interaction strength
V50A;A60K	with no effect
R27A	causing an interaction
R27D	with no effect
V50A	causing an interaction
C33F;A60K	with no effect
C33F	causing an interaction
N24K	causing an interaction
N24K;A60K	with no effect
R27A;A60K	with no effect
I49A	causing an interaction
I49D	causing an interaction

Variants of: B1
Settings: with cul3_human CUL3, Q13618

Variant	effect of a mutation on the interaction
V50A	with no effect

Variants of: B2
Settings: with fxl17_human FBXL17, Q9UF56
Target sequence in this assay (Q9UF56 whole entry): as above

Variant	effect of a mutation on the interaction
K40D	increasing interaction strength
K40A	with no effect
L39A	decreasing interaction strength
L39D	disrupting interaction strength
V67D	disrupting interaction strength
V67A	increasing interaction strength
Y43A	increasing interaction strength
Y43D	disrupting interaction strength
